Entries after “also recorded” stand apart in the source; their conditions may differ.
What was measured:
[1] = system: mouse colon cancer MC-38 cells (subcutaneous tumors); test: MC-38 syngeneic mouse model of colon cancer; assay type: in vivo, mouse (C57BL/6); details: for reduction in tumor volume versus control: FIG. 23
Procedure: Methodology used (Syngeneic Mouse Models of lung, colon and pancreatic cancer): To investigate the anti-tumor effects of HDM2-specific antibodies on lung, colon and pancreatic tumors in vivo, three well-known syngeneic mouse models of lung, colon and pancreatic cancer were used (Sharma et al, 1999, J. Immunol. 163 (9):5020-5028; McIntyre, 2015, Bioassays 37(8):909-920; Li, et al, 2015, Sci. Rep. 5:7856). Subcutaneous tumors were prepared by implanting either mouse Lewis Lung cancer LL/2 cells (2.5×10^5 cells/mouse), mouse colon cancer MC-38 cells (5×10^5 cells/mouse) or mouse pancreatic cancer Panc-2 cells (2×10^6 cells/mouse) in the right flanks of 8-week-old female C57BL/6 mice (n=6-7). The mice were returned to their respective cages after tumor implantation. From day 7 after tumor implantation, the tumor volumes were measured 2 times/week with a digital caliper. In the case of MC-38 and Panc-2 study, treatment started when the tumors reached an average of 70-80 mm^3. In the case of LL/2 study, tumor cell inoculation and treatment were initiated simultaneously. Mice were micro-chipped and registered following tumor implantation. Tumor volume measurements and body weights were recorded and mice were randomized into groups that received: A) mAb NMC-103 at 0.4 mg/kg (3 times a week for 3 weeks), 2 mg/kg (2 times a week for 3 weeks), or 4 mg/kg (2 times a week for 3 weeks); B) NMC-204 at 0.4 mg/kg (3 times a week for 3 weeks); C) isotype control mouse IgG1 (Abeam, Cat. No. ab 18447) or IgG3 (Abeam, Cat. No. ab 18392) at 0.4 mg/kg (3 times a week for 3 weeks) or 4 mg/kg (2 times a week for 3 weeks); D) Gemcitabine (25 mg/kg) and nab-paclitaxel (5 mg/kg) 2 times a week for 3 weeks; or E) a combination of gemcitabine (25 mg/kg), nab-paclitaxel (5 mg/kg) and mAb NMC-103 (2 mg/kg; 2 times a week for 3 weeks) or (10 mg/kg; 2 times a week for 2 weeks). All tumors were injected subcutaneously and all treatments were performed by intraperitoneal injection. Any mouse displaying prolonged adverse clinical signs, or with body weight loss exceeding 15% relative to body weight at day 0, was euthanized. Tumor measurements from post-treatment with HDM2-specific antibodies versus isotype control mouse antibodies versus standard of care treatment (gemcitabine and nab-paclitaxel) were made, and results are presented in FIGS. 16-19.
To further evaluate the NMC-103 dose-dependent anti-tumor effect, in a separate study, the MC-38 syngeneic tumor in mice (n=5) was re-established and treatment carried out similarly to the study of FIG. 17 with the following modification: increase of antibody concentration from 0.4 mg/kg to 10 mg/kg.

[2] = system: human breast cancer MCF-7 cells; test: Cell-ELISA, intact cells; assay type: binding; details: mAb 1 μg/mL, FIGS. 3-5
Procedure: (§1) Cell-ELISA Methodology: 8,000-10,000 cells/well of a 96-well microplate were grown overnight. The next day, unbound cells were washed off with sterile 1× PBS. The cells in each well were fixed with freshly prepared 4% buffered paraformaldehyde (pH 7.2) for 1 hour followed by 3 washes with 1× PBS. The wells were then blocked with 5% BSA in PBS (100 ? /well) for 2 hours at room temperature. Microplate wells were then washed 5 times with 300 ? of ice cold 1× PBS. MAbs NMC-103, NMC-204 or NMC-303 at 1 μg/mL in 1% BSA/PBS were then incubated with various cancer or normal untransformed cells for 2 hours at room temperature. Wells were then washed with 300 ? of ice-cold 1× PBS for 5 times and corresponding secondary antibody HRP-GaM F(ab′)2 diluted 1:2500 or 1:5000 in PBS with 1% BSA were added at 100 ? /well for 1 hour at room temperature followed by washing 5 times with 300 ? of ice-cold 1× PBS. TMB Substrate Solution (1-StepTM Ultra TMB-ELISA, ThermoFisher, Cat. No. 34028) was then added at 50 ? ? to each microplate well and incubated at room temperature for 30 minutes. The reaction was stopped by addition of 50 μL, of stop solution (ThermoFisher, Cat. No. SSO4) to each well and absorbance of each well was measured at OD450 nm. The absorbance value of each experimental well was corrected for the absorbance value obtained from wells treated with isotype-identical mAbs included in each experiment. The results are thus expressed as “relative binding”.

[3] = system: human pancreatic cancer MIA PaCa-2 cells; test: Cell-ELISA, intact cells; assay type: binding; details: for binding to intact, EDTA-released MiaPaCa-2 cells, cell-ELISA: EDTA 10 mmols, pH 7.2, 5 min, 37° C., FIG. 10; for binding to intact MIA PaCa-2 cells when competed with NMC-P2 peptide / binding to intact MIA PaCa-2 cells when competed with soluble NMC-P1 peptide: FIG. 8; for relative binding (reactivity) to intact cells, cell-ELISA: MIA PaCa-2, mAb 1 μg/mL, FIGS. 3-5
Procedure: as §1

[4] = molecular target: NMC-P2 peptide (SEQ ID NO:2), amino acids 15-25 of HDM2 (Homo sapiens, UniProt Q00987); test: Peptide-ELISA, NMC-P2 peptide; assay type: binding; details: 5 μg/ml peptide dried on plate; OD 450 nm
Procedure: (§2) Peptide-ELISA Methodology: 5 μg/ml of NMC-P1, NMC-P2 or NMC-P3 peptide antigen was dried onto a 96-well ELISA plate overnight. Plates were then blocked with 5% BSA in 1× phosphate-buffered saline (PBS) (100 ? /well) for 2 hours at room temperature. Microplate wells were then washed 5 times with 300 ? of ice cold 1× PBS. Appropriate dilutions of monoclonal antibodies NMC-103, NMC-204 or NMC-303 in 1% bovine serum albumin (BSA) in PBS solution were then incubated with their corresponding peptides (NMC-P1, NMC-P2 or NMC-P3, respectively) at room temperature. After 2 hours, wells were washed 5 times with 300 ? ? ice-cold PBS/well and 100 ? secondary antibody (HRP-labeled Goat anti-Mouse F(ab′)2 H&L cross-adsorbed secondary antibody (HRP-GaM F(ab′)2), ThermoFisher, Cat. No. A24524) diluted 1:2500 to 1:5000 in PBS-1% BSA solution were added and the incubation continued at room temperature. After 1 hour, the wells were washed again 5 times with 200 ? of ice-cold PBS and 50 μiL of the TMB Substrate Solution (1-StepTM Ultra TMB-ELISA, ThermoFisher, Cat. No. 34028) were added to each well and color was allowed to develop for 30 minutes at room temperature. The reaction was stopped by addition of 50 μ ? ? of stop solution (ThermoFisher, Cat. No. SSO4) to each well and absorbance of each well was read immediately for optical density (OD) at 450 nm.

[5] = molecular target: NMC-P1 peptide (SEQ ID NO:1), amino acids 1-15 of HDM2 (Homo sapiens, UniProt Q00987); test: Peptide-ELISA, NMC-P1 peptide; assay type: binding; details: 5 μg/ml peptide dried on plate; OD 450 nm
Procedure: as §2

[6] = 0.4 mg/kg i.p. 3 times a week for 3 weeks

B1: NMC-103: mouse monoclonal antibody, IgG1 isotype, binds NMC-P1 (SEQ ID NO:1); VH SEQ ID NO:36, VL SEQ ID NO:37 (antibody, V domains shown)
VH: EVQLQESGGGLVQPGGSLRLSCTTSGFTFTHYYMSWVRQPPGKALEWLGFIRNKAKGYTAEYSASVKGRFTISRDNSQSILYLQMNTLRPEDSATYYCARDIGDNWGQGTLVTVSS
VL: DIVMTQAAFSNPVTLGTSASISCRSSKNLLHSNGITYLYWYLQRPGQSPQLLISRVSNLASGVPNRFSGSESGTDFTLRISRVEAEDVGVYFCAQLLELPYTFGGGTKLEIK
modifications: mAb NMC-103 Heavy Chain Variable Region; mAb NMC-103 Light Chain Variable Region
For B1, the “reduction in tumor volume versus control” value [1, 6] was “significant (p<0.005) reduction in tumor volume”, the “tumor cells stained positive for Ki67 (immunohistochemistry)” value ([1]; NMC-103 study, 0.4 mg/kg, FIG. 17B) was 5% and the average tumor size ([1]; day 12, 10 mg/kg, 2 times per week for 2 weeks, n=5, FIG. 31) was 210 mm^3. The tumor volume ([1]; treated for 18 days, 0.4 mg/kg i.p. 3 times a week for 2.5 weeks, FIG. 17A) was 1268 mm^3, the “relative binding (reactivity) to intact cells, cell-ELISA” value (from here on “relative binding (reactivity)”) [2] was “reactivity” and the “binding to intact, EDTA-released MiaPaCa-2 cells, cell-ELISA” value [3] was “bound”. The “binding to intact MIA PaCa-2 cells when competed with NMC-P2 peptide” value [3] was “did not have any effect”, the “binding to intact MIA PaCa-2 cells when competed with soluble NMC-P1 peptide” value [3] was “completely abolished” and the “binding to intact MIA PaCa-2 cells after pre-incubation with full-length recombinant HDM2” value ([3]; FIG. 9) was “reduced”. For the same molecule, the “relative binding (reactivity)” value [3] was “reactivity”, the “binding to NMC-P2 peptide (peptide-ELISA)” value [4] was “did not bind” and the “binding to NMC-P1 peptide (peptide-ELISA)” value [5] was “bound; also recorded: strong binding”.

B2: NMC-204: mouse monoclonal antibody, IgG3 isotype, binds NMC-P2 (SEQ ID NO:2); VH SEQ ID NO:38, VL SEQ ID NO:39 (antibody, V domains shown)
VH: EVQLQESGSVLVRPGASVKLSCKASGDTLSGSWMHWAMQRPGQGLEWIGEIHLNRGTTNYNEKFKGKATVTVDTSSSTAYVDLSSLTSEDSAVYYCARSPGFAYWGQGTLVTVSA
VL: GIVMTQAAPSVPVTPGESVSISCRSSKSLLHSNGNSYLYWFLQRPGQSPQLLIYRMSNLASGVPDRFSGSGSGTAFTLRITRVEAEDVGVYYCMQHLEYPFTFGSGTKLEIK
modifications: mAb NMC-204 Heavy Chain Variable Region; mAb NMC-204 Light Chain Variable Region
In the case of B2, the tumor volume ([1]; 0.4 mg/kg i.p. 3 times a week for 3 weeks, FIG. 18A) is reported as 1670 mm^3, the “reduction in tumor volume versus control” value [1, 6] is reported as “significant (p<0.005) reduction in tumor volume” and the “tumor cells stained positively for Ki67” value ([1]; NMC-204 study, 0.4 mg/kg, FIG. 18B) is reported as 30%. The “relative binding (reactivity)” value [2] was “reactivity”, the “binding to intact, EDTA-released MiaPaCa-2 cells, cell-ELISA” value [3] was “bound” and the “binding to intact MIA PaCa-2 cells when competed with NMC-P2 peptide” value [3] was “competed”. For the same molecule, the “binding to intact MIA PaCa-2 cells when competed with soluble NMC-P1 peptide” value [3] was “not with NMC-P1”, the “relative binding (reactivity)” value [3] was “reactivity” and the “binding to NMC-P2 peptide (peptide-ELISA)” value [4] was “bound; also recorded: strong binding”. For the same molecule, the “binding to NMC-P1 peptide (peptide-ELISA)” value [5] was “did not bind”.
